assay: yeast display, Sf9 membrane polyspecificity reagent, FACS + sequencing; frameworks hold sequencing errors
Outline: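 Nanobodies came from a synthetic yeast display library in Saccharomyces cerevisiae BJ5465, induced with galactose for 36–48 hours and stained for 1 hour at 4 °C with 10% biotinylated, detergent-solubilized Sf9 membrane reagent. Cells were enriched on streptavidin microbeads and then FACS-sorted, with low and high (top ~1%) gates set on anti-HA fluorescence for expression and streptavidin fluorescence for reagent binding. Each polyreactivity label reflects the gate a clone came from. Genes were amplified by colony PCR, sequenced by MiSeq 2 × 250 and filtered by CDR length.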

Sequence	polyreactivity (PSR sort gate)
QVQLQESGGGLVQAGGSLRLSCAASGTISVHASMGWYRQAPGKERELVAGITDGANTYYADSVKGRFTISRDNSKNTVYMQKNSLKPEDTAVYYCAAYYGTEVHFTYWGQGTQVTVSS	low polyreactivity
QVQLQESGGGLVQAGGSLRLSCAASGTISYGSVMGWYRQAPGKERELDAGIGYGSTTNYADSVKGRFTISRDNAKNTVYLQMNSLKPDDTAVYYCARDLYYVYSFAPYRYEYWGHGTQVTVSS	low polyreactivity
QVQLQESGGGLVQAGGSLRLSCAASGYISFSGYMGRYRQAPGKEREFVDSITPGRSTYYADSVKGRFTISRDNAENTVYLQMNSLQPEDTAVDYCAADDSRTEQHAYWGQGTQVTVRS	high polyreactivity
QVQLQESGGGLVQAGGSLRLSCAASGYISHADEMGWYRKAPGKEHELVASISNGGSTNYADSVKGRFTISRDNAKNTVYLQMNSLKSEDTAVYYCAAWTGQVDIHYYWGMGTQVTVSS	low polyreactivity
QVQLQESGGGLVQAGGSLRLSCAASGYISHADEMGWYRQAPGKEHELVASISNGGSTNYADSVKGRFTIRRDNAKNTVYLQMNSLKSEDTAVYYCAAWTGQVDIHDSWGQRTQVTVSS	low polyreactivity
QVQLQESGGGLVQAGGSLRLSCAASGYISHADEMGWYRQAPGKEHELVASISNGGSTNYADSVKGRFTISRDNAKNTVFLQMNSLKSEDTAVYYCAAWTGQVDIHYYWGQGTQVTVSS	low polyreactivity
QVQLQESGGGLVQAGGSLRLSCAASGYISHADEMGWYRQAPGKEHELVASISNGGSTNYADSVKGRFTISRDNANNTVYLQMNSLKSEVTAVYYCAAWTGQVDIHYYWGQGTQVTVSS	low polyreactivity
QVQLQESGGGLVQAGGSLRLSCEASGSIYYPRTMGRSRQAPGKELEFVAGSGVGGTTYYADSVKGRFTISRDNAKNTVYLQMNSLIPEDDAVYYCAVAAYYDKYYVYWGQGTQVTVSC	low polyreactivity
QVQLQESGGGLVQAGGSLRLSSAASGSIFKVVDMGLYRQAPAKEREFVATIGEGGNTYYADSVKGRFTMSRDNAKNTVYLQKNSLKPEDTALYFYAVVLGTSYRYTYWGQGTQVTVSS	low polyreactivity
QVQLQESGGGLVQAGGSLRLTCAASGSISYPRTMGWYRQAPGKEREFVAGIGVGGTTYYADSVKGRYTISRDNAKNTVYLQMNSLKPEHAAVDYCAVAAYYDKYYVYWGQGTQVTVSC	low polyreactivity
QVQLQESGGGLVQAGGSLRMICAASGYISACRQMGWYRKAPGKEREFVATINGGATTNYADSVKGRFTISRDNAKNSVYLQMNSLKPEDTAVYYCAAVIWYVQDYTYWGQGAQVTVSS	high polyreactivity
QVQLQESGGGLVQAGGSLRMSCAASGNIFDADIMGWSRQAPGKERELVASNTDGRRTNYADSVKGRYTISRDSEKNTVYLQMNSLKAEDTAEYYCAAIAYPVVPTSFDYDCDYFHWGQGTQVTVSS	high polyreactivity
QVQLQESGGGLVQAGGSLRMSCAASGTISPLPAMGWYRQAPGKDRDFVAGIDTGAITNYADSVKGRFTISRDNAKNTVYLQMNSLKPEDTAVYYCAVFPAAYDYYERYYTYWGQGTQVTVSS	low polyreactivity
QVQLQESGGGLVQAGGSLRMSCSASGNIFDADIMGWYRQAPGKERELVASITDGRRTNYADSVKGRYTISRDSEKNTVYLQMNSLKPEDTAVYYCAAIAYPVVPTYFDYDSDYFHWGQGTQVTVSS	high polyreactivity
QVQLQESGGGLVQAGGSLRQSYAASGYIFPSLAMGWYRQAPGKEREFVAAIGRGSTNNYADSVQGRFTISRDNAKNTAYQQMNSLKPEDTAVYYCAAAASPLTRHLYWGQGTQVTVSS	low polyreactivity
QVQLQESGGGLVQAGGSPRLSCAASDNIFPDSLMCWYRQAPGKERELVATIGFGATTNYEDSVKGRFTISRDNAKNTVYLQMNSLNPEDTALYYCAAVPLNYEYFCYWGQGTQVTVSS	low polyreactivity
QVQLQESGGGLVQAGGSPRLSCAASDNIFPDSVMCWYRQAPGKERELVATIGFGATTNYADSVKGRFTISRDNAKNTVYLQMNSLKPEDTAVYYCAAVPLNYEYFCYWGQGTQVTVSS	low polyreactivity
QVQLQESGGGLVQAGGSQRLSCAASGSISILQSMRWYRQAPGKERELVAGINWGATTYYADSVKGRLTSCRDYAKNTVYLEMNSLNPEDTAVYYCAVPTYYTYPLLYWGQGTQVTVSS	low polyreactivity
QVQLQESGGGLVQAGGSQRLSCAASGYIFYFQYMGWYRQAPGKEREFVAAISDGANTNYADSVKGRFTISRDNAKNTEYLQMNSLKPEDTAVYYCAAGLSTGTIAYGYNYWRQGTQVTVSS	low polyreactivity
QVQLQESGGGLVQAGGTITLGYDMGWYRQAPGKEREFVAGIDTGAITYYADSVKGRFTNSRDNAKNTVYLQMNSLKPEDTAVYYCAAIQTHTYAHSYWGQGTQVTVSS	high polyreactivity
QVQLQESGGGLVQAGGTLRLSCAASGSFSADEDMGWYRQSQGKEREFVAGISVGGNTNYADSVKGRFTISRENAKKTVYLKINCLKPEDTAVYYCRVRLRTSYLLDYWGQGTQVTVSS	high polyreactivity

Sequence	polyreactivity (PSR sort gate)
QVQLQESGGGLVQAGGTLRLSCAASGTISFTRDMGWYRQAPGKEREFVASIDRGASTYYADSVKGRFTISRDNAKNTVYLQMNSLKPEDNAVYYRAVIAPFYSSFAYWGQGTQVTVSS	high polyreactivity
QVQLQESGGGLVQAGVSLRLSGAASGYISTFSSEMGWYRQAPVKERELVASIAPGCTTSYADSVKGRFTISRDNAKNTVYLQMNSLKPEDTAVYYCAVDYTVPASFGYWGQGTQVTVSS	high polyreactivity
QVQLQESGGGLVQARGSLRLSCAASGSISRYYDMGWYRQAPCKESEFVAGISGGAITYYADSVKGRFTISRDNAKNTVYLQMNSLKPEDTAVYYCAADTGVYKYHSYWGQVTQVTVSS	low polyreactivity
QVQLQESGGGLVQASGSIFHEPNMGWYRQAPGKERELVAGISSGANTYYADSVKGRFTISRDNAKNTVYLQMNSVKPEDTAVYHCAVVVHLYTDLRNWGQDTQVTVSS	high polyreactivity
QVQLQESGGGLVQASGSIFHEPTMGWYRQAPGKERELVAGISSGANTYYADSGKGRCTISRDNAKNTVYLQMNSLKPEDTAVYYCNARRRYSLTMDYWGHGTQVTVSS	high polyreactivity
QVQLQESGGGLVQASGSLRLSCAASGNIFPDYFMGWYRLATGKEREFVANITGGSTTNYADSVKGRFTISRDNANNTVYLQIYSLKPEDTAVYYCAVYFGTVQHAYWGQGTQVTVSS	high polyreactivity
QVQLQESGGGLVQSGGSLRLSCAASGFIFARNYMGWYRQAPGKERELVAGIGVGASTNYADSVKGRFTISRDNAKNTVYLQMNSLKPEDTAVYYCNARTGTTWQGYEYDYWGQGTQVTVSS	low polyreactivity
QVQLQESGGGLVQVGGSLRLSFAASGTIFIYGFLGWNLQAPGKERELVASINLGGITNYADSVKGRFTISRDNAKNTVYLQMLSLKPEDTAVYYCAAYVVTGQNYGYWGQGTQVTVSS	low polyreactivity
QVQLQESGGGLVQVGGSQRLSCAASGNIFYNYAMGWYRHAQGKEREFDATINHGTSINYADSVKGRFTISRDNAKNSVYLQMNSLKPEDTAVYYCAADLSWTDNLFYWGQGTQVTVSS	low polyreactivity
QVQLQESGGGMVQAGGCLRLSCAASVTIFDPDYMGWYHQAPGKERELVASISLGRITYYADSVKGRFTINRDNAKNTVFLQMISLKPEDTAVYYCAAVTGLFYHPFYKYNYWGQGTQVTVSS	high polyreactivity
QVQLQESGGGMVQAGGSLRLSCASSGYISWADYMGWSRQAPGKERELVDGIGYGSTTYYADSVKGRFNISRDNAKNTAYLQMISLKPEDTAVYYCAVGWYSVTAYNYWGQGTQVTVSS	low polyreactivity
QVQLQESGGGMVQAGGSLRLSSAASGYISWADSMGWYRQAPGKERELVAGIGYGSTTYYADSVKGRFTISRDNAKNTAYLQMNSLKPEDTAVYYCSVGWYRDTAYKYWGQGTQVTVRS	low polyreactivity
QVQLQESGGGQVHAGGSLRLSCAASGTIFLYAYMGWYRQAPGKERELVAAIDVGTTTNYADSVKGRFTISRDNAKNTVYLQMNSLKPEDTAVYYCAANLGYLDDLGYWGQGTQETVSS	low polyreactivity
QVQLQESGGGQVQAGGSLRLSCAASGYISTHYFMGWYRQATGKDREFVAGISNGSITNYADSVKGRFTISRDNARNTVYLQMNSLKPEDTAVYYGAAYEWTYVRFGYWGQGTQVTVSG	high polyreactivity
QVQLQESGGLVQAGGLRLSCAASGSVSYQEAMGWYRQAPGKERELVATISFGAKTNYADSVKGRFTISRDNAKNTVYLHINSLNPEDTAVYYCAAESLFDDYYGYWGQGTQVTVSS	low polyreactivity
QVQLQESGGRLVQASGSIFHEPNMGWHRQAPGKERELVATISDGAITNYADSVKGRFTISRDNAKNTVYLQMNSLIPEDTAVYYCAATGGLNGALSRLEYWGQGTQVSVSS	high polyreactivity
QVQLQESGGRLVQSGGSLRPSCAASGSISDGVPMGWNSQAPGDERELVATTVLGATTNNADSVKGRFTISRGNAKNTVYLQMNSLKPEETAVYYCAAPLRYDKGFSYWGQGTQVTVSS	low polyreactivity
QVQLQESGSGLVQAGGSLRLSCAASGNISHYNDMGWYRQAPGKEREPVATINSGSITYYADSVKGRFTISRDNAKYTVYLQMNSLKPEDTAVYYCAVKQHGYFYLDYWGQGTQVTVSS	high polyreactivity
QVQLQESGSGQVQAGGSLRLSCAASGAIFPAYLMGWYRQAPGKERELVAGISYGSITYCADSVKGRFNISRDNAKNTVYLQMNSLKPEDTAVYYCAVWRPGGDEYYYWGQGTQVTVSS	low polyreactivity
QVQLQESRGGLVQAGGSLRLGFAASGNISDAGNKGWYRQAPGKEREFVAAIAAGSNTNYADSVKGRFTISRDNAKNTVYLQMNSLKPEDTAVFYCAVAYYARLQYEYWGQGTQVTVKS	low polyreactivity

Source: the nanobody polyreactivity screen of Harvey et al. (2022)
